# Reference: the supplement of paper PMC9112550, “Optimization of the antimicrobial peptide Bac7 by deep mutational scanning” (BMC Biology, 2022)
# Test system: Escherichia coli TOP10
# Experiment: shrunken log2 fold change of peptide-encoding DNA abundance (4.5 h post-induction vs induction); higher = less antimicrobial activity (less host growth inhibition)
# Conditions: time post-induction: 4.5 h; library: site-saturation at positions 5, 18, 19, 20
# 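Note: peptides expressed intracellularly from a pBAD plasmid library in pooled LB shake-flask culture, induced with 0.3% L-arabinose, DNA abundance read by NGS, three biological replicates, DESeq2 with apeglm shrinkage.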
row,Sequence,shrunken log2 fold change
1,RRIRWRPPRLPRPRPRPMEPPRP,0.0539
2,RRIRWRPPRLPRPRPRPMFGPRP,-0.0457
3,RRIRWRPPRLPRPRPRPMFVPRP,-0.51
4,RRIRWRPPRLPRPRPRPMGIPRP,0.0704
5,RRIRWRPPRLPRPRPRPMIMPRP,-0.0612
6,RRIRWRPPRLPRPRPRPMIWPRP,0.0116
7,RRIRWRPPRLPRPRPRPMLPPRP,-0.0127
8,RRIRWRPPRLPRPRPRPMMIPRP,-0.0137
9,RRIRWRPPRLPRPRPRPMPLPRP,-0.0398
10,RRIRWRPPRLPRPRPRPMQNPRP,0.459
11,RRIRWRPPRLPRPRPRPMRIPRP,0.222
12,RRIRWRPPRLPRPRPRPMSSPRP,0.0453
13,RRIRWRPPRLPRPRPRPMSTPRP,-0.111
14,RRIRWRPPRLPRPRPRPMTDPRP,0.0543
15,RRIRWRPPRLPRPRPRPMTMPRP,-0.385
16,RRIRWRPPRLPRPRPRPMTVPRP,-0.0472
17,RRIRWRPPRLPRPRPRPMWLPRP,0.244
18,RRIRWRPPRLPRPRPRPMYPPRP,-0.245
19,RRIRWRPPRLPRPRPRPMYRPRP,-0.233
20,RRIRWRPPRLPRPRPRPMYYPRP,-0.32
21,RRIRWRPPRLPRPRPRPNDIPRP,-0.565
22,RRIRWRPPRLPRPRPRPNDYPRP,-1.02

row,Sequence,shrunken log2 fold change
1,RRIRWRPPRLPRPRPRPNFFPRP,0.0572
2,RRIRWRPPRLPRPRPRPNGNPRP,0.0106
3,RRIRWRPPRLPRPRPRPNHCPRP,-0.0525
4,RRIRWRPPRLPRPRPRPNHHPRP,-0.457
5,RRIRWRPPRLPRPRPRPNHKPRP,-0.37
6,RRIRWRPPRLPRPRPRPNIYPRP,-0.307
7,RRIRWRPPRLPRPRPRPNLFPRP,0.144
8,RRIRWRPPRLPRPRPRPNNCPRP,0.00476
9,RRIRWRPPRLPRPRPRPNPHPRP,-0.0669
10,RRIRWRPPRLPRPRPRPNPRPRP,0.452
11,RRIRWRPPRLPRPRPRPNPWPRP,0.265
12,RRIRWRPPRLPRPRPRPNRLPRP,-0.0743
13,RRIRWRPPRLPRPRPRPNRQPRP,0.175
14,RRIRWRPPRLPRPRPRPNTCPRP,-0.777
15,RRIRWRPPRLPRPRPRPPANPRP,0.629
16,RRIRWRPPRLPRPRPRPPCCPRP,0.198
17,RRIRWRPPRLPRPRPRPPCNPRP,0.0762
18,RRIRWRPPRLPRPRPRPPCQPRP,0.0989
19,RRIRWRPPRLPRPRPRPPGTPRP,0.475
20,RRIRWRPPRLPRPRPRPPHSPRP,0.218
21,RRIRWRPPRLPRPRPRPPICPRP,-0.0702
22,RRIRWRPPRLPRPRPRPPITPRP,-0.173

row,Sequence,shrunken log2 fold change
1,RRIRWRPPRLPRPRPRPPKGPRP,0.61
2,RRIRWRPPRLPRPRPRPPKMPRP,0.172
3,RRIRWRPPRLPRPRPRPPKWPRP,0.627
4,RRIRWRPPRLPRPRPRPPLGPRP,0.416
5,RRIRWRPPRLPRPRPRPPLTPRP,0.432
6,RRIRWRPPRLPRPRPRPPQKPRP,0.413
7,RRIRWRPPRLPRPRPRPPRQPRP,0.209
8,RRIRWRPPRLPRPRPRPPRWPRP,0.591
9,RRIRWRPPRLPRPRPRPPSCPRP,0.0112
10,RRIRWRPPRLPRPRPRPPVIPRP,-0.189
11,RRIRWRPPRLPRPRPRPPWNPRP,0.279
12,RRIRWRPPRLPRPRPRPPYGPRP,-0.0783
13,RRIRWRPPRLPRPRPRPQAEPRP,0.0113
14,RRIRWRPPRLPRPRPRPQAMPRP,0.179
15,RRIRWRPPRLPRPRPRPQATPRP,0.381
16,RRIRWRPPRLPRPRPRPQAVPRP,0.232
17,RRIRWRPPRLPRPRPRPQEAPRP,-0.00482
18,RRIRWRPPRLPRPRPRPQEQPRP,0.0647
19,RRIRWRPPRLPRPRPRPQFCPRP,-0.0503
20,RRIRWRPPRLPRPRPRPQFHPRP,-0.275
21,RRIRWRPPRLPRPRPRPQFPPRP,0.0157
22,RRIRWRPPRLPRPRPRPQGLPRP,0.00602

row,Sequence,shrunken log2 fold change
1,RRIRWRPPRLPRPRPRPQHTPRP,0.0837
2,RRIRWRPPRLPRPRPRPQIGPRP,0.0807
3,RRIRWRPPRLPRPRPRPQKHPRP,-0.15
4,RRIRWRPPRLPRPRPRPQKQPRP,0.184
5,RRIRWRPPRLPRPRPRPQLAPRP,0.351
6,RRIRWRPPRLPRPRPRPQLDPRP,0.0393
7,RRIRWRPPRLPRPRPRPQMKPRP,-0.316
8,RRIRWRPPRLPRPRPRPQNRPRP,0.0839
9,RRIRWRPPRLPRPRPRPQNWPRP,0.215
10,RRIRWRPPRLPRPRPRPQPCPRP,0.179
11,RRIRWRPPRLPRPRPRPQPGPRP,0.221
12,RRIRWRPPRLPRPRPRPQPSPRP,0.287
13,RRIRWRPPRLPRPRPRPQPTPRP,0.334
14,RRIRWRPPRLPRPRPRPQQGPRP,0.342
15,RRIRWRPPRLPRPRPRPQQIPRP,-0.0385
16,RRIRWRPPRLPRPRPRPQRKPRP,0.46
17,RRIRWRPPRLPRPRPRPQRVPRP,2.3
18,RRIRWRPPRLPRPRPRPQSKPRP,-0.0549
19,RRIRWRPPRLPRPRPRPQSRPRP,0.299
20,RRIRWRPPRLPRPRPRPQSSPRP,-0.276
21,RRIRWRPPRLPRPRPRPQTAPRP,0.282
22,RRIRWRPPRLPRPRPRPQTVPRP,-0.0322

row,Sequence,shrunken log2 fold change
1,RRIRWRPPRLPRPRPRPQTYPRP,-1.17
2,RRIRWRPPRLPRPRPRPQVAPRP,0.472
3,RRIRWRPPRLPRPRPRPQVDPRP,1.5
4,RRIRWRPPRLPRPRPRPQWHPRP,0.0415
5,RRIRWRPPRLPRPRPRPQWRPRP,-0.0345
6,RRIRWRPPRLPRPRPRPRAKPRP,0.788
7,RRIRWRPPRLPRPRPRPRARPRP,0.773
8,RRIRWRPPRLPRPRPRPRCQPRP,-0.0289
9,RRIRWRPPRLPRPRPRPRDQPRP,-0.033
10,RRIRWRPPRLPRPRPRPREFPRP,0.349
11,RRIRWRPPRLPRPRPRPREYPRP,0.0698
12,RRIRWRPPRLPRPRPRPRFTPRP,0.307
13,RRIRWRPPRLPRPRPRPRGCPRP,0.961
14,RRIRWRPPRLPRPRPRPRGIPRP,0.234
15,RRIRWRPPRLPRPRPRPRGSPRP,0.495
16,RRIRWRPPRLPRPRPRPRGTPRP,0.873
17,RRIRWRPPRLPRPRPRPRGWPRP,1.13
18,RRIRWRPPRLPRPRPRPRIMPRP,0.12
19,RRIRWRPPRLPRPRPRPRIRPRP,0.0716
20,RRIRWRPPRLPRPRPRPRISPRP,0.305
21,RRIRWRPPRLPRPRPRPRKFPRP,0.295
